Test results from publication PMC8914513.
Each block holds one substance with its values, some of them ahead of it.

Tests used:
DHFR (Homo sapiens) [1] = biological target: DHFR (Homo sapiens) (UniProt P00374); assay: MST; settings: cited from earlier work
DHFR (Homo sapiens) [2] = biological target: DHFR (Homo sapiens) (UniProt P00374); assay: QCM-D; settings: cited from earlier work
[3] = biological target: serine hydroxymethyltransferase, cytosolic (SHMT1), His-tagged, immobilised in QCM-D (UniProt P34896); assay: QCM-D (quartz crystal microbalance with dissipation monitoring); two proteins: 5 uM His-tagged SHMT immobilised on His-tag capturing sensor QSX340; tagless ligand introduced (0.1-1.0 uM or 0.5-7.0 uM for TS, pTS or DHFR); 20 mM Tris-HCl pH 7.6, 100 mM (salt not given), 10 mM MgCl2, 0.05% Tween 20, 25 C, 200 ul/min; Langmuir isotherm fit
Chain of serine hydroxymethyltransferase, cytosolic (SHMT1), His-tagged, immobilised in QCM-D (P34896 whole entry): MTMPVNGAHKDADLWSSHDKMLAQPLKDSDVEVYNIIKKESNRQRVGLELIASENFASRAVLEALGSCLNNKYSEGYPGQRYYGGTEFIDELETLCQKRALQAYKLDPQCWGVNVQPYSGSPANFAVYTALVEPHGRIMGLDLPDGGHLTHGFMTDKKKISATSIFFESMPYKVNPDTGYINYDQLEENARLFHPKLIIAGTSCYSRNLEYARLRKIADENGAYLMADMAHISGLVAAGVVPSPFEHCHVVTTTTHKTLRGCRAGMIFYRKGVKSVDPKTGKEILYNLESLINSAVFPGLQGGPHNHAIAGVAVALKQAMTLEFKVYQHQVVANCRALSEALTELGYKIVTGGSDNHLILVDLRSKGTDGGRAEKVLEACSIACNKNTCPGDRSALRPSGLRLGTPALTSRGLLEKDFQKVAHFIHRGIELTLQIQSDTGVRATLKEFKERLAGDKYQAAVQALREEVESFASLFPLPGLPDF

[4] = biological target: CK2alpha-phosphorylated thymidylate synthase fraction (pTS), as used in MST (human) (UniProt P04818); assay: MST; two proteins in solution, Premium capillaries: labeled DHFR with SHMT 157 uM-4.79 nM; labeled SHMT with TS 62.0 uM-1.9 nM; labeled pTS with SHMT 157 uM-4.79 nM; Kd model fit
Chain of CK2alpha-phosphorylated thymidylate synthase fraction (pTS), as used in MST (human) (P04818 whole entry): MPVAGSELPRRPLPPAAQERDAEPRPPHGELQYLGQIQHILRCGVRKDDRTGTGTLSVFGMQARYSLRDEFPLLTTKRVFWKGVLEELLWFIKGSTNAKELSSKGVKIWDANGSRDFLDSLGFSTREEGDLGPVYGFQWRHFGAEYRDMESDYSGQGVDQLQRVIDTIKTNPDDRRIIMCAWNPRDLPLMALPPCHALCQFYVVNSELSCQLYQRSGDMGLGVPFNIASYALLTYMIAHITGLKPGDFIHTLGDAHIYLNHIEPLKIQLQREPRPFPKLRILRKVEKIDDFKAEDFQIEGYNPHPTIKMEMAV

Chain of DHFR (Homo sapiens) (P00374 whole entry): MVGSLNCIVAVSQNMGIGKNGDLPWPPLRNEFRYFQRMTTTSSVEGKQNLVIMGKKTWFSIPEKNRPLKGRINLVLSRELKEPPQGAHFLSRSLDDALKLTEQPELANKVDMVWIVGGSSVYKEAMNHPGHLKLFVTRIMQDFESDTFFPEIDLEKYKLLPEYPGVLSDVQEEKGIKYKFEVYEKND
Chain of thymidylate synthase (P04818 2-313): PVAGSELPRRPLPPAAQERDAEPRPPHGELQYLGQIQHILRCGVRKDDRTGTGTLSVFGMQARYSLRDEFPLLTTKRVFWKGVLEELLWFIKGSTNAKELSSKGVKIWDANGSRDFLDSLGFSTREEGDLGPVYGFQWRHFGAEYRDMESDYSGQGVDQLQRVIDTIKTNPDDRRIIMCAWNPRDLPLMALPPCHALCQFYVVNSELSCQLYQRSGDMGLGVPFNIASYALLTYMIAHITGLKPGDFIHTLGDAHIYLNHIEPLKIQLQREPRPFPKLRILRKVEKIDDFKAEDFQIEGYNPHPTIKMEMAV

Substance: thymidylate synthase (from UniProt P04818)
Kd (DHFR (Homo sapiens) [1]): 2.8 µM | Kd (DHFR (Homo sapiens) [2]): 7.6 µM

Kd [3]: 5.35 µM
Substance: CK2alpha-phosphorylated thymidylate synthase fraction (pTS), tagless ligand in QCM-D (from UniProt P04818 1-313) (enzyme)

Kd [4]: 0.219 µM
Substance: serine hydroxymethyltransferase, cytosolic (SHMT1), as used in MST (from UniProt P34896 1-483) (enzyme)
